Data as given in IntAct's records for PubMed 11278422.

B1: Apoptosis-stimulating of p53 protein 2 (Homo sapiens), Q13625-2 (parent)
chain: MDLTLAELQEMASRQQQQIEAQQQLLATKEQRLKFLKQQDQRQQQQVAEQEKLKRLKEIAENQEAKLKKVRALKGHVEQKRLSNGKLVEEIEQMNNLFQQKQRELVLAVSKVEELTRQLEMLKNGRIDSHHDNQSAVAELDRLYKELQLRNKLNQEQNAKLQQQRECLNKRNSEVAVMDKRVNELRDRLWKKKAALQQKENLPVSSDGNLPQQAASAPSRVAAVGPYIQSSTMPRMPSRPELLVKPALPDGSLVIQASEGPMKIQTLPNMRSGAASQTKGSKIHPVGPDWSPSNADLFPSQGSASVPQSTGNALDQVDDGEVPLREKEKKVRPFSMFDAVDQSNAPPSFGTLRKNQSSEDILRDAQVANKNVAKVPPPVPTKPKQINLPYFGQTNQPPSDIKPDGSSQQLSTVVPSMGTKPKPAGQQPRVLLSPSIPSVGQDQTLSPGSKQESPPAAAVRPFTPQPSKDTLLPPFRKPQTVAASSIYSMYTQQQAPGKNFQQAVQSALTKTHTRGPHFSSVYGKPVIAAAQNQQQHPENIYSNSQGKPGSPEPETEPVSSVQENHENERIPRPLSPTKLLPFLSNPYRNQSDADLEALRKKLSNAPRPLKKRSSITEPEGPNGPNIQKLLYQRTTIAAMETISVPSYPSKSASVTASSESPVEIQNPYLHVEPEKEVVSLVPESLSPEDVGNASTENSDMPAPSPGLDYEPEGVPDNSPNLQNNPEEPNPEAPHVLDVYLEEYPPYPPPPYPSGEPEGPGEDSVSMRPPEITGQVSLPPGKRTNLRKTGSERIAHGMRVKFNPLALLLDSSLEGEFDLVQRIIYEVDDPSLPNDEGITALHNAVCAGHTEIVKFLVQFGVNVNAADSDGWTPLHCAASCNNVQVCKFLVESGAAVFAMTYSDMQTAADKCEEMEEGYTQCSQFLYGVQEKMGIMNKGVIYALWDYEPQNDDELPMKEGDCMTIIHREDEDEIEWWWARLNDKEGYVPRNLLGLYPRIKPRQRSLA

Variants of: B1
Conditions: with yap1_chick YAP1, P46936
Sequence of yap1_chick YAP1, P46936 (P46936 whole entry): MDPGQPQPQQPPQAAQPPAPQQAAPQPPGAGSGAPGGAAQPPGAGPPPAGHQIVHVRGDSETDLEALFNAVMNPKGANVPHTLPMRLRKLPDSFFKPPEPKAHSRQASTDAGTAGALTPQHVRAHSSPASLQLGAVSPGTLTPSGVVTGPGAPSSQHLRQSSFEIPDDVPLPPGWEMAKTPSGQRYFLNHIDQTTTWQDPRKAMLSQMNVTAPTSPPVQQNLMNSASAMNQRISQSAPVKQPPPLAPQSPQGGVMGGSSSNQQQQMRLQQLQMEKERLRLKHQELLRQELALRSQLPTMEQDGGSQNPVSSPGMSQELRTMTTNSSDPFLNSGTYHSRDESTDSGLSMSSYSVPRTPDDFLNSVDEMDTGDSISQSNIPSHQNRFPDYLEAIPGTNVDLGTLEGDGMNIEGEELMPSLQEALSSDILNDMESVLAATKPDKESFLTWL

effect of a mutation on the interaction | Variant
disrupting interaction | Y751A

Variants of: B1
Conditions: with yap1_chick YAP1, P46936
Remark: another data set of the same source

effect of a mutation on the interaction | Variant
disrupting interaction | P749A

Variants of: B1
Conditions: with yap1_chick YAP1, P46936
Remark: another data set of the same source

effect of a mutation on the interaction | Variant
decreasing interaction | P747A

Variants of: B1
Conditions: with yap1_chick YAP1, P46936
Remark: another data set of the same source

effect of a mutation on the interaction | Variant
disrupting interaction | Y746A

Variants of: B1
Conditions: with yap1_chick YAP1, P46936
Remark: another data set of the same source

effect of a mutation on the interaction | Variant
disrupting interaction | P748A
